Data from US20240239881A1 (Innovent, published 2024).

Tests used:
human Ang2 [1] = target: T1, human Ang2 (human, UniProt O15123 19-496, limits assumed); assay: ForteBio BLI, antibody on AHQ sensor, 100 nM antigen, 1:1 model
T1 construct: also called hAng2; h Ang2
T1 sequence: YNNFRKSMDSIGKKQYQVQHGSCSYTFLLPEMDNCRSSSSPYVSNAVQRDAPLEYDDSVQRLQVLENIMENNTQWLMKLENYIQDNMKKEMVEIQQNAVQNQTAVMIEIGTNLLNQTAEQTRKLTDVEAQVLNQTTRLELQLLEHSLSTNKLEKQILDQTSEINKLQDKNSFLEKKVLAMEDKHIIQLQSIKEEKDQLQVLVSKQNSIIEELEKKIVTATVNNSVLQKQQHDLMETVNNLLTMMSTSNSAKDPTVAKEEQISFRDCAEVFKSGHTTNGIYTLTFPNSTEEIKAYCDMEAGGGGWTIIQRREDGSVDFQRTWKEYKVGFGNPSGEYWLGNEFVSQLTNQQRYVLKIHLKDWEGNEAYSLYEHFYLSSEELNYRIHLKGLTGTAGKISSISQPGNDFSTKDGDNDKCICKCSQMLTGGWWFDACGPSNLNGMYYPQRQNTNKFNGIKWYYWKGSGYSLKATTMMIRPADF
Description: The equilibrium dissociation constants (KD) of the above exemplary antibodies of the present invention binding to human Ang2 (h Ang2), cynomolgus monkey Ang2 (cAng2), murine Ang2 (mAng2), and human Ang1 (hAng1) were determined using the biological optical interferometry (ForteBio) assay.
The ForteBio affinity assay was performed according to the existing method (Estep, P et al., High throughput solution-based measurement of antibody-antigen affinity and epitope binning. MAbs, 2013.5 (2): p. 270-8). Briefly, the sensor was equilibrated in the assay buffer off-line for 30 min, followed by on-line detection for 60 s to establish the baseline. Then the purified antibodies obtained as described above were loaded on-line onto an AHQ sensor (ForteBio) for ForteBio affinity assay. The sensors with loaded antibodies were exposed to 100 nM of hAng2, cAng2, mAng2, and hAng1 antigens for 5 min, and then were transferred into the assay buffer for dissociation for 5 min to determine the dissociation rate. Kinetic analysis was performed using a 1:1 binding model.

[2] = target: T2, hAng2-Fc protein (Sino Biological, Cat No.: 10691-H02H) (human, UniProt O15123 19-496); assay: blocking assay by flow cytometry: antibody titrated against hAng2-Fc (2 ug/ml final); blocked binding to human Tie2 on 293-tie2 cells; anti-human IgG-PE, MFI
T2 construct: Bought fusion; also called human Ang2-Fc; human Ang2-hFc; not shown: human Fc of the bought fusion protein
T2 sequence: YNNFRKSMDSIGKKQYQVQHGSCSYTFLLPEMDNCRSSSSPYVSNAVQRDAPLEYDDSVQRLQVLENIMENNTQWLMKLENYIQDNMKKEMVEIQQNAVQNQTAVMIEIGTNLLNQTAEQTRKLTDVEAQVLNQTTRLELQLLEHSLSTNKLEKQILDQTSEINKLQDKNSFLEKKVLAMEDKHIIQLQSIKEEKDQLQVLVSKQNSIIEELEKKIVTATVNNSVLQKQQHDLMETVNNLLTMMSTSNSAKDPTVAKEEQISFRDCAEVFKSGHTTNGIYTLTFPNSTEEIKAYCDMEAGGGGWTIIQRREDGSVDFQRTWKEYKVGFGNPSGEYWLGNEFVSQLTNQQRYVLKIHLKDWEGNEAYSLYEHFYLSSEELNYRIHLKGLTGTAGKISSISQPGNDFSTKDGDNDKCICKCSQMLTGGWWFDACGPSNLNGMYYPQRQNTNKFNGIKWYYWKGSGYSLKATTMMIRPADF
Description: The ability of hz81H10.4 and the control antibody Nesvacumab to block the binding of human Ang2-hFc to Tie2 on the cell surface was detected by flow cytometry (FACS).
The antigen hAng2-Fc protein (Sino Biological, Cat No.: 10691-H02H) was diluted to 4 μg/ml, and added to the plate wells at 50 μl/well. Antibodies (hz81H10.4 and control antibody Nesvacumab) prepared as described above were diluted at 2-fold with a total of 12 dilution points starting from the highest concentration of 800 nM, and added to the plate wells at 50 μl/well, and incubated in PBS on ice for 30 min, where the final concentration of the antigen was 2 μg/ml and the highest concentration of antibody was 400 nM. […] The cells were centrifuged at 300 g for 5 min, and after the supernatant was discarded, the cells were resuspended in the antigen-antibody mixture. The cells were incubated on ice for 30 min, and added with PBS at 100 μl/well, centrifuged at 300 g for 5 min, and washed with PBS once. A 100 μl of goat anti-human IgG-PE (Southern Biotech, Cat. No. 2040-09) diluted at 1:200 was added to each well and placed in an ice bath for 20 min. PBS was added at 100 μl/well, and the cells were centrifuged at 300 g for 5 min, and washed once with PBS. The cells were resuspended in 100 μl PBS and the fluorescence signals of the cells were detected by a flow cytometer (BD Biosciences). […]

Rabbit ANG2 = target: T3, Rabbit ANG2 (rabbit, UniProt G1T9B3 19-496); assay: SPR, Biacore T200, antibody captured on Protein G chip, experiment 3
T3 sequence: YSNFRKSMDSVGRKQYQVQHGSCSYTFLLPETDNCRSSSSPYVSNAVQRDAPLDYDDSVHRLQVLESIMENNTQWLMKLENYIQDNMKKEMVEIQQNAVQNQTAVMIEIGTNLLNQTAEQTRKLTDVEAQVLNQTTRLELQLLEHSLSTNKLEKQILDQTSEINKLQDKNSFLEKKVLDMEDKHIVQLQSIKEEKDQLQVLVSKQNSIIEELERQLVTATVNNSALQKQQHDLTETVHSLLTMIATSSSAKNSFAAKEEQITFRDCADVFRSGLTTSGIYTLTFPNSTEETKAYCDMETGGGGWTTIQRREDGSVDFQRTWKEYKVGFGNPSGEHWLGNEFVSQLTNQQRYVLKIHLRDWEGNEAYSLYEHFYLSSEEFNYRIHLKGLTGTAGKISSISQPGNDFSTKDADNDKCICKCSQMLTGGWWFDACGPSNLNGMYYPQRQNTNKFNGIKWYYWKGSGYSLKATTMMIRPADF
Description: (§1) The antibody was diluted to 1 μg/mL and was captured onto channel 2 for 30 s, and channel 1 was the blank control channel. The gradient-diluted Human ANG2, Rhesus ANG2, Rabbit ANG2, Rat ANG2 and Mouse ANG2 were sequentially injected into channels 1 and 2 of the chip, from low to high concentrations (0-32 nM), at a flow rate of 30 μL/min, with one concentration per cycle, and with 180 s association time and 1200 s dissociation time at 25° C. Finally, the chip was regenerated using Glycine pH 1.5 at 30 μL/min for 30 s. The affinity assay was repeated three times.

human Ang2 [3] = target: T1, human Ang2; assay: as above
Description: as §1

- Kd (human Ang2 [1]): 1.25 nM
- IC50 [2]: 2.3 nM
- Kd (Rabbit ANG2): 0.446 nM
- koff (Rabbit ANG2): 0.000144 s⁻¹
- kon (Rabbit ANG2): 322000 M⁻¹ s⁻¹
- Kd (human Ang2 [3]): 0.0357 nM
- koff (human Ang2 [3]): 1.05e-05 s⁻¹
- kon (human Ang2 [3]): 293000 M⁻¹ s⁻¹
B1: humanized antibody hz81H10.4 (antibody, human IgG1, kappa, V domains shown)
VH: EVQLVESGGGLVKPGGSLRLSCAASGFTFSNYWMNWVRQAPGKGLEWVAEIRLKSNNYATHYAESVKGRFTISRDVSKNTVYLQMNSLKTEDTAVYYCTDTAPFAYWGQGTLVTVSS
VL: DIQMTQSPSSLSASVGDRVTITCKASQDVGTDVAWYQQKPGKAPKLLIYWASTRHTGVPSRFSGSGSGTDFTLTISSLQPEDFATYYCQQYSSYPLTFGGGTKVEIKR
notes: also called IBI335
